Numbered stars: 1 amine (or outer) side, 2 acyl side, 3 side chain; on linkers, the order of the positions; unused ones are H or OH. Bridge positions count the residues as written; N and C are the ends. Square brackets hold non-standard residues; d marks the D form. Ends that are not written are not given here. I, II: the chains in the order shown. * marks the point of attachment. Cys(Acm) = Cys protected with acetamidomethyl (Acm), CC(=O)NCSC[C@H](N[*:1])C(=O)[*:2]; Biotin = O=C1N[C@H]2[C@H](CS[C@H]2CCCCC(=O)*)N1; Ttds = O=C(CCC(=O)[*:2])NCCCOCCOCCOCCCN[*:1]
Legend:
Assay in all cases: cell-based or functional assay
HIV-1 gp41 (strain HXB2) [1] = molecular target: T1, HIV-1 gp41 (strain HXB2) (HIV-1 strain HXB2, UniProt P04578 512-856)
HIV-1 gp41 (strain HXB2) [2] = molecular target: T1, HIV-1 gp41 (strain HXB2); remark: listed apart in the source
HIV-1 gp41 (strain HXB2) [3] = molecular target: T1, HIV-1 gp41 (strain HXB2); remark: listed apart in the source
gp41 of SHIV-89.6P = gp41 of SHIV-89.6P (SHIV-89.6P)
HIV-1 gp41 (strain MN-1) = HIV-1 gp41 (strain MN-1) (HIV-1 strain MN-1, UniProt P05877 514-856)
Chain of HIV-1 gp41 (strain MN-1) (P05877 514-856 limits assumed): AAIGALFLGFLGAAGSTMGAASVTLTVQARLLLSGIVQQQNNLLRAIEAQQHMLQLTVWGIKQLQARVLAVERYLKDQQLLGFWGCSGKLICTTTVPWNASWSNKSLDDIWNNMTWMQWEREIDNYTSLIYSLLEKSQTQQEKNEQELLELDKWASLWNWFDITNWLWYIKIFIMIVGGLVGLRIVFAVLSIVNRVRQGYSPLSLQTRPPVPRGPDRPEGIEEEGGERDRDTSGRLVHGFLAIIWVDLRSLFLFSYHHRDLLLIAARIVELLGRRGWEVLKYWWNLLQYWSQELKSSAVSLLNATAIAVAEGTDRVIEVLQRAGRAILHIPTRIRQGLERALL

HIV-1 gp41 (strain 89.6) = HIV-1 gp41 (strain 89.6) (HIV-1 strain 89.6)
HIV-1 gp41 (strain BaL) = HIV-1 gp41 (strain BaL) (HIV-1 strain BaL)
[4] = molecular target: HIV-1 gp41 (strain NL4-3) (HIV-1 strain NL4-3)

B1: (Biotin-CCIZN23)3 (peptide)
peptide: Biotin-GCCGGIKKEIEAIKKEQEAIKKKIEAIEKEIEAQQHLLQLTVWGIKQLQARIL
modifications: not fully specified (bridges); also: covalent homotrimer via three interchain disulfides
- IC50, single-cycle HIV infectivity assay (HIV-1 gp41 (strain HXB2) [1]): 0.316 nM

Binder: Ac-IKKEIEAIKKEQEAIKKKIEAIEKLLQLTVWGIKALAAAIA-NH2 [IZN17Ala4]
- IC50, single-cycle infectivity assay, HIV-1 HXB2 (FIG. 12A) (HIV-1 gp41 (strain HXB2) [2]): 25 nM
- IC50, anti-viral activity against HIV-HXB2 (HIV-1 gp41 (strain HXB2) [3]): 25.3 nM

B2: (CCIZN17)3 (peptide)
peptide: Ac-CCGGIKKEIEAIKKEQEAIKKKIEAIEKLLQLTVWGIKQLQARIL-NH2
modifications: not fully specified (bridges); also: homotrimer of three chains, cysteine pairing not given here
- IC50, anti-viral assay against HIV-1 HXB2 (FIG. 13) (HIV-1 gp41 (strain HXB2) [2]): 0.132 nM
- IC50, single-cycle HIV infectivity assay (gp41 of SHIV-89.6P): 6.9 nM
- IC50, single-cycle HIV infectivity assay (HIV-1 gp41 (strain MN-1)): 0.9 nM
- IC50, single-cycle HIV infectivity assay (HIV-1 gp41 (strain 89.6)): 8 nM
- IC50, single-cycle HIV infectivity assay (HIV-1 gp41 (strain BaL)): 0.34 nM
- IC50, single-cycle HIV infectivity assay (HIV-1 gp41 (strain HXB2) [1]): 0.04 nM
- IC50, single-cycle HIV infectivity assay [4]: 0.1 nM

B3: (CCI10N17)3 (peptide)
peptide: Ac-CCGGIKKKIEAIEKLLQLTVWGIKQLQARIL-NH2
modifications: not fully specified (bridges); also: homotrimer of three chains, cysteine pairing not given here
- IC50, anti-viral assay against HIV-1 HXB2 (FIG. 13) (HIV-1 gp41 (strain HXB2) [2]): 24 nM
- fold change of IC50 against (CCIZN17)3, anti-viral assay against HIV-1 HXB2 (FIG. 13) (HIV-1 gp41 (strain HXB2) [2]): ~150 fold
- fold change of IC50 against IZN17, anti-viral assay against HIV-1 HXB2 (FIG. 13) (HIV-1 gp41 (strain HXB2) [2]): ~10 fold

B4: ac-C(Acm)(thioE10N17)3 (peptide)
peptide 1: Ac-[Cys(Acm)][Ttds]CCIEEKIEEIEELLQLTVWGIKQLQARIL
peptide 2: Ac-GGGIEEKIEEIEELLQLTVWGIKQLQARIL
modifications: bridge I:N-I:4; thioether (positions not given here); not fully specified (bridges); also: trimer, copy numbers of chains not given here
- IC50, anti-viral activity against HIV-HXB2 (HIV-1 gp41 (strain HXB2) [3]): 150 nM

Binder: Ac-IKKEIEAIKKEQEAIKKKIEAIEKLLQLTVWGIKQLQARIL-NH2 (also: non-covalent trimeric coiled-coil) [IZN17]
- IC50, anti-viral assay against HIV-1 HXB2 (FIG. 13) (HIV-1 gp41 (strain HXB2) [2]): 1.68 nM
- IC50, single-cycle infectivity assay, HIV-1 HXB2 (HIV-1 gp41 (strain HXB2) [2]): 0.2 nM
- IC50, single-cycle HIV infectivity assay (HIV-1 gp41 (strain BaL)): 3.2 nM
- IC50, single-cycle HIV infectivity assay (HIV-1 gp41 (strain HXB2) [1]): 1.7 nM

B5: NH2-C(Fm)(thioIZN17)3 (peptide)
peptide 1: CCCGGIKKEIEAIKKEQEAIKKKIEAIEKLLQLTVWGIKQLQARIL
peptide 2: GGGIKKEIEAIKKEQEAIKKKIEAIEKLLQLTVWGIKQLQARIL
modifications: N-terminal acetyl (from bromoacetyl) joined by a thioether bond to a Cys of the CC chain; free N-terminal amine; Cys1 thiol protected with Fm; Ttds linker between Cys1 and Cys2; Cys2 and Cys3 each joined by a thioether bond to the N-terminal acetyl of a GGGIZN17 chain
- IC50, single cell infectivity assay, HIV-1 HXB2 (HIV-1 gp41 (strain HXB2) [2]): 1.1 nM

B6: ac-C(thioIZN17)3 (peptide)
peptide 1: CCCGGIKKEIEAIKKEQEAIKKKIEAIEKLLQLTVWGIKQLQARIL
peptide 2: GGGIKKEIEAIKKEQEAIKKKIEAIEKLLQLTVWGIKQLQARIL
modifications: N-terminal acetyl (from bromoacetyl) joined by a thioether bond to a Cys of the CC chain; N-terminal acetyl; Cys1 free thiol; Ttds linker between Cys1 and Cys2; Cys2 and Cys3 each joined by a thioether bond to the N-terminal acetyl of a GGGIZN17 chain
- IC50, anti-viral activity assay, HIV-HXB2 (HIV-1 gp41 (strain HXB2) [2]): 0.24 nM

B7: ac-C(Acm)(thioIZN17)3 (peptide)
peptide 1: CCCGGIKKEIEAIKKEQEAIKKKIEAIEKLLQLTVWGIKQLQARIL
peptide 2: GGGIKKEIEAIKKEQEAIKKKIEAIEKLLQLTVWGIKQLQARIL
modifications: N-terminal acetyl (from bromoacetyl) joined by a thioether bond to a Cys of the CC chain; N-terminal acetyl; Cys1 thiol protected with acetamidomethyl (Acm); Ttds linker between Cys1 and Cys2; Cys2 and Cys3 each joined by a thioether bond to the N-terminal acetyl of a GGGIZN17 chain
- IC50, anti-viral activity against HIV-HXB2 (HIV-1 gp41 (strain HXB2) [3]): 0.24 nM

B8: (CCIZN17Ala4)3 (peptide)
peptide: Ac-CCGGIKKEIEAIKKEQEAIKKKIEAIEKLLQLTVWGIKALAAAIA-NH2
modifications: not fully specified (bridges); also: homotrimer of three chains, cysteine pairing not given here
- IC50, anti-viral activity against HIV-HXB2 (HIV-1 gp41 (strain HXB2) [3]): 47 nM

Binder: Biotin-GGIKKEIEAIKKEQEAIKKKIEAIEKEIEAQQHLLQLTVWGIKQLQARIL [Biotin-IZN23]
- IC50, single-cycle HIV infectivity assay (HIV-1 gp41 (strain HXB2) [1]): 2.17 nM

B9: (CCS17N17)3 (peptide)
peptide chain of the covalent trimer: Ac-CCGGIEKKIEAIEKKIEAIEKLLQLTVWGIKQLQARIL-NH2
modifications: not fully specified (bridges); also: homotrimer of three chains, cysteine pairing not given here
- IC50, anti-viral activity against HIV-HXB2 (HIV-1 gp41 (strain HXB2) [3]): 0.33 nM

B10: ac-C(Acm)(thioS17N17)3 (peptide)
peptide 1: CCCGGIEKKIEAIEKKIEAIEKLLQLTVWGIKQLQARIL
peptide 2: GGGIEKKIEAIEKKIEAIEKLLQLTVWGIKQLQARIL
modifications: N-terminal acetyl (from bromoacetyl) joined by a thioether bond to a Cys of the CC chain; N-terminal acetyl; Cys1 thiol protected with Acm; Ttds linker between Cys1 and Cys2; Cys2 and Cys3 each joined by a thioether bond to the N-terminal acetyl of a GGGS17N17 chain
- IC50, single cell infectivity assay, HIV-1 HXB2 (HIV-1 gp41 (strain HXB2) [2]): 0.27 nM

B11: (I10N17CC)3 (peptide)
peptide: IKKKIEAIEKLLQLTVWGIKQLQARILGGCC
modifications: not fully specified (bridges); also: homotrimer of three chains, cysteine pairing not given here
- IC50, anti-viral activity against HIV-HXB2 (HIV-1 gp41 (strain HXB2) [3]): 77.6 nM

B12: (CCIZN13)3 (peptide)
peptide: Ac-CCGGIKKEIEAIKKEQEAIKKKIEAIEKLLQLTVWGIKQLQ
modifications: not fully specified (bridges); also: homotrimer of three chains, cysteine pairing not given here
- IC50, antiviral activity against HIV HXB2 (FIG. 13) (HIV-1 gp41 (strain HXB2) [2]): 85.3 nM

— patent publication US20070224212A1 (Merck Sharp & Dohme, published 2007)
